Molecular target: respiratory complex IV (S. cerevisiae (endogenous in yeast mitochondria)) (UniProt P00410)
Experiment: co-IP

Chain of UniProt P00410 (P00410 whole entry, looked up, one chain of several): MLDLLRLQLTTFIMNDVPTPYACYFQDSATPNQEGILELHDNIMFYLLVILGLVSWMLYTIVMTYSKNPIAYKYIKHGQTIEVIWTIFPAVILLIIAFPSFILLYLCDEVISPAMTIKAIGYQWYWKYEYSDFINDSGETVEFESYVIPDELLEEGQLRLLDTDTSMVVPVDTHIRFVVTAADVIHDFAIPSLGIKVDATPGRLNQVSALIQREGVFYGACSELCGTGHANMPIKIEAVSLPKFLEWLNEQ

percent of the total AAC2 content associated with the respiratory supercomplex: 0.5 to 1%
Substance: AAC2, the major ADP/ATP carrier (endogenous) (from UniProt P18239 1-318) (natural protein)

Reference: article PMC2528576
